Measured values as given in US20160311925A1 (UNIVERSITY OF ROCHESTER, published 2016).

T1: His-AmdR1R2-B (Staphylococcus aureus, UniProt Q5HH31 198-775)
T1 construct: also called rAmd; soluble Amd; not shown: BirA biotinylation site
T1 sequence: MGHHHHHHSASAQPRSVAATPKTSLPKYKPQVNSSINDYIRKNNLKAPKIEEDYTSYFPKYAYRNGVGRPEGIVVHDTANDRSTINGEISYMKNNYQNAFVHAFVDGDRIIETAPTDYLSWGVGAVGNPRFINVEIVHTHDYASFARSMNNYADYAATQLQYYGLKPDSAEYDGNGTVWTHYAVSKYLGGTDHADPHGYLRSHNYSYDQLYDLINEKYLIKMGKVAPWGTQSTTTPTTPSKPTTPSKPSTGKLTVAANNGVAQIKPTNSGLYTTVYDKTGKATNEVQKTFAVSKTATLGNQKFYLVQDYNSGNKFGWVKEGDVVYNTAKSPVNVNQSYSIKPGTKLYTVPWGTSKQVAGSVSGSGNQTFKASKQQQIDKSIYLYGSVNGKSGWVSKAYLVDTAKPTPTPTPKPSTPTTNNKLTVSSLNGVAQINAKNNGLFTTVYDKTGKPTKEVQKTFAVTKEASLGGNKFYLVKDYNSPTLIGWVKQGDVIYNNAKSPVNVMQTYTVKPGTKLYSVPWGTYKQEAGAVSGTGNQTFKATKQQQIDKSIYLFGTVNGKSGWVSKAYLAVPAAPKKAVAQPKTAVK

B1: anti-Amd mAb Amd2.2 (antibody, V domains shown)
VH: ESGPELVKPGASVKISCKASGYTFTDYNMHWVRQSHGKSLEWIGYIYPYNGGTGYNQKFKSKATLTVDNSSSTAYMELRSLTSEDSAVYYCAREDGYYGYFDYWGQGTTLTGSS
VL: EIVLTQSPAITAASLGQKVTITCSASSSVNYMHWYQQKSGTSPKPWIYEISKLASGVPARFSGSGSGTSYSLTISSMEAEDAAIYYCQQWNYPLITFGAGTKLELK
notes: Mouse hybridoma mAb (Fusion #2), IgG1; The VH is incomplete at the N-terminus
B2: anti-Amd mAb Amd1.11 (antibody, V domains shown)
VH: QIQLVQSGPELKKPGETVKISCKASGYTFTNYGMNWVKQAPGKGLEWMGWINTYTGEPTYADDFKGRFAFSLETSASTAYLLINNLKNEDTATYFCARRDGYFDAMDYWGQGTSVTVSS
VL: DILLTQSPAILSVSPGERVSFSCRASQSIGTSIHWYQQRTNGSPRLLIKYASESISGIPSRFSGSGSGTDFTLSINSVESEDIADYYCQQSNSWPALTFG
notes: Mouse hybridoma mAb (Fusion #1), IgG1; The VL is incomplete at the C-terminus
B3: anti-Amd mAb Amd1.6 (antibody, IgG1, V domains shown)
VH: QSGTVLARPGTSVKMSCKASGYSFTNYWMHWVRQRPGQGLEWIGSIYPGNSDTTYNQKFKDKAKLTAVTSASTAYMELSSLTNEDSAVYYCTGDDYSRFSYWGQGTLVTVSA
VL: SIVMTQTPKFLLVSAGDRLTITCKASQSVSNDVAWYQQKPGQSPKLLIYYTSNRYTGVPDRFTGSGYGTDFTFTISTVQAEDLAVYFCQQDYNSPWTFGGGTK
notes: Mouse hybridoma mAb (Fusion #1), IgG1; The variable domains are incomplete at the termini; also called mAb1.6
B4: anti-Amd mAb Amd1.1 (antibody, IgG1, V domains shown)
VH: QQSGAELVKPGASVKLSCTASGFNIKDTYIHWVKQRPEQGLEWIGRIDPANGITNYDPKFQGRATITADTSSNIAYLQLTSLTSEGTAVYYCARGGYLSPYAMDYWGQGTSVTVSS
VL: ENVLTQSPAIMSASLGEKVTMTCRASSSVNYMFWFQQKSDASPKLWIYYTSNLAPGVPARFSGSGSGNSYSLTISSMEGEDAATYYCQEFTSFPYTFG
B5: anti-Amd mAb Amd1.9 (antibody, V domains shown)
VH: VESGGGLVKPGGSLKLSCAASGFTFSSYAMSWVRQTPKKSLEWVASITSGGSAYYPDSVKGRFTISRDNARNILNLQMSSLRSEDTAMYYCARDDGYFDYWGQGTTLTVSS
VL: DIQMTQSPASLSVSVGETVTITCRTSENIFSNFAWYQQQPGKSPQLLVYGATNLADGVPSRFSGSGSGTQYSLKITSLQSEDFGSYYCQHFWGSPWTF
notes: Mouse hybridoma mAb (Fusion #1), IgG1; The variable domains are incomplete at the termini

Columns and labels:
His-AmdR1R2-B [1] = target: T1, His-AmdR1R2-B; assay: SPR, Biacore T-200; immobilized (captured) mAb, soluble His-AmdR1R2-B
Experimental: (§1) The capture (association, t=0 to 120 sec) and release (dissociation, t=120 to 420 sec) phases are presented. […] Measurements were made according the manufacturer's instructions and kinetic data were analyzed using biomolecular interaction analysis (BIA) evaluation software (version 3.1) from Biacore AB.
(§2) The affinity of immobilized anti-Amd mAbs for soluble His-AmdR1R2-B was measured using surface plasmon resonance technology on a Biacore T-200.

His-AmdR1R2-B [2] = target: T1, His-AmdR1R2-B; assay: SPR, Biacore T-200; mAb captured by rabbit anti-mouse Fc IgG on a CM-5 chip, Amd at 1.56 to 25 nM; the single run shown in FIG. 4
Experimental: as §1, §2

His-AmdR1R2-B [3] = target: T1, His-AmdR1R2-B; assay: cell-based or functional assay
His-AmdR1R2-B [4] = target: T1, His-AmdR1R2-B; assay: SPR, Biacore T-200; immobilized (captured) mAb, soluble His-AmdR1R2-B; average
Experimental: as §1, §2

His-AmdR1R2-B [5] = target: T1, His-AmdR1R2-B; assay: SPR (Biacore T-200): Ab 1.6 (20nM) captured on immobilized rabbit anti-mouse Fc (RamFc), soluble Amd flowed at 1.56 to 25 nM
Experimental: as §1, §2

Binder	Kd (His-AmdR1R2-B [1]) [nM]	further results
B1	1.4	–
B2	3.4	–
B3	–	Kd (His-AmdR1R2-B [2]): ~1 nM; IC50 (read off the curve) (His-AmdR1R2-B [3]): ~2 µg/mL; Kd (His-AmdR1R2-B [4]): 2.1 nM; Kd (His-AmdR1R2-B [5]): 1.03 nM
B4	2.5	–
B5	2.6	–
